Laboratory results: the supplement of paper PMC7125110
± gives the standard error. For some assays here: Variants at the floor of the assay were thinned out.

B1: glmS ribozyme (parent)
chain: AUAAAAGCGCCAGAACUACAGAAAUGUAGUUGACGAGGAGGAGGUUUAUCGAAUUUUCGGCGGAUGCCUCCAAA

Key:
Conditions in all cases: with glucosamine-6-phosphate
glucosamine-6-phosphate [1] = variants of: B1; assay: kcat; higher = faster cleavage; RNA array
Method in brief: (§1)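 kcat and KM were obtained from weighted Michaelis–Menten fits across concentrations of kobs values. Those came from one- or two-exponential decay fits to per-tile medians normalised to baseline and to non-cleaving reference variants. The variants were barcoded ribozymes transcribed in situ by E. coli RNA polymerase on sequenced MiSeq chips and tracked through a hybridised Cy3 probe at 37 °C, with 40 μM to 10 mM glucosamine-6-phosphate in HEPES/KCl/Mg(OAc)2 buffer flowed in.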

glucosamine-6-phosphate [2] = variants of: B1; assay: self-cleavage kobs at 2500 uM GlcN6P; higher = faster cleavage; RNA array
Method in brief: as §1

glucosamine-6-phosphate [3] = variants of: B1; assay: self-cleavage kobs at 10000 uM GlcN6P; higher = faster cleavage; RNA array
Method in brief: as §1

glucosamine-6-phosphate [4] = variants of: B1; assay: KM; higher = weaker cofactor use; RNA array
Method in brief: as §1

glucosamine-6-phosphate [5] = variants of: B1; assay: self-cleavage kobs at 160 uM GlcN6P; higher = faster cleavage; RNA array
Method in brief: as §1

glucosamine-6-phosphate [6] = variants of: B1; assay: self-cleavage kobs at 640 uM GlcN6P; higher = faster cleavage; RNA array
Method in brief: as §1

glucosamine-6-phosphate [7] = variants of: B1; assay: self-cleavage kobs at 40 uM GlcN6P; higher = faster cleavage; RNA array
Method in brief: as §1

Variant | kcat (glucosamine-6-phosphate [1]) [s⁻¹] | self-cleavage kobs at 2500 uM GlcN6P (glucosamine-6-phosphate [2]) [s⁻¹] | self-cleavage kobs at 10000 uM GlcN6P (glucosamine-6-phosphate [3]) [s⁻¹] | KM (glucosamine-6-phosphate [4]) [µM] | self-cleavage kobs at 160 uM GlcN6P (glucosamine-6-phosphate [5]) [s⁻¹] | self-cleavage kobs at 640 uM GlcN6P (glucosamine-6-phosphate [6]) [s⁻¹] | self-cleavage kobs at 40 uM GlcN6P (glucosamine-6-phosphate [7]) [s⁻¹]
U69A C70A | 3.8e-05 ± 4.6e-06 | 4.37e-05 ± 1.1e-05 | 3.27e-05 ± 9.4e-06 | – | – | – | –
A15G G44U | 0.00046 ± 2.8e-05 | 0.000252 ± 6.3e-05 | 0.0004 ± 3.1e-05 | 1550 ± 270 | 3.52e-05 ± 1.5e-05 | 0.000151 ± 2.5e-05 | –
G29A G38A C67A | 1.79e-05 ± 4.1e-06 | – | – | – | – | – | –
A52G C70U | 0.00261 ± 0.00024 | 0.000878 ± 0.00015 | 0.00194 ± 0.00018 | 3870 ± 600 | 0.000108 ± 3.7e-05 | 0.00037 ± 6.1e-05 | 2.96e-05 ± 5.4e-06
A15U C68A | 2.71e-05 ± 1e-05 | 3.7e-05 ± 1.7e-05 | – | – | – | – | –
C11U A36C | < 1e-05 | – | < 1e-05 | – | < 1e-05 | – | < 1e-05
G59U C67A | 1.11e-05 ± 3.2e-06 | – | – | – | – | – | < 1e-05
U45G C70A | 0.000251 ± 5.4e-05 | 0.000364 ± 0.00011 | 0.000215 ± 4.3e-05 | – | – | 0.000111 ± 2.5e-05 | –
G66C C71G | 4.2e-05 ± 2.4e-06 | 4.07e-05 ± 1.1e-05 | 3.81e-05 ± 1.5e-05 | 108 ± 50 | – | 4e-05 ± 1.4e-05 | –
C16G U69G | 4.98e-05 ± 9.6e-06 | 5.34e-05 ± 6.2e-06 | – | – | 3.78e-05 ± 1.2e-05 | 5.32e-05 ± 1.1e-05 | –
A12G G66U | 0.000245 ± 7.9e-05 | 3.43e-05 ± 7.2e-06 | 9.94e-05 ± 9.7e-06 | – | – | – | –
U45G A52U | 0.000421 ± 0.0001 | 7.57e-05 ± 2e-05 | 0.000189 ± 3e-05 | – | < 1e-05 | – | < 1e-05
A14G G29U U47G C70G | 8.6e-05 ± 1.6e-05 | 6.72e-05 ± 1.5e-05 | 0.000118 ± 2.8e-05 | – | – | 0.000119 ± 3.1e-05 | –
C10U A53U G59C C68G | < 1e-05 | – | – | – | – | – | < 1e-05
G13U A14U | 0.000743 ± 0.00015 | 0.000331 ± 4.6e-05 | 0.00066 ± 7.3e-05 | 2270 ± 1000 | 8.56e-05 ± 2.3e-05 | 0.000174 ± 3.7e-05 | –
A52G U57A | 0.000484 ± 0.00016 | 0.00023 ± 2.4e-05 | 0.000289 ± 8e-05 | – | 4.1e-05 ± 1.6e-05 | 6.62e-05 ± 9.6e-06 | –
A52G U57C | 0.000378 ± 1.3e-05 | 0.000227 ± 3.1e-05 | 0.000314 ± 4.4e-05 | 1790 ± 110 | 2.83e-05 ± 1.3e-05 | 9.94e-05 ± 1e-05 | –

Variant | kcat (glucosamine-6-phosphate [1]) [s⁻¹] | self-cleavage kobs at 2500 uM GlcN6P (glucosamine-6-phosphate [2]) [s⁻¹] | self-cleavage kobs at 10000 uM GlcN6P (glucosamine-6-phosphate [3]) [s⁻¹] | KM (glucosamine-6-phosphate [4]) [µM] | self-cleavage kobs at 160 uM GlcN6P (glucosamine-6-phosphate [5]) [s⁻¹] | self-cleavage kobs at 640 uM GlcN6P (glucosamine-6-phosphate [6]) [s⁻¹] | self-cleavage kobs at 40 uM GlcN6P (glucosamine-6-phosphate [7]) [s⁻¹]
U57C | 0.000311 ± 3.8e-06 | 0.000136 ± 3.2e-06 | 0.000236 ± 4.4e-06 | 3180 ± 76 | 1.34e-05 ± 2.2e-06 | 5.24e-05 ± 1.5e-06 | –
U57A | 0.000404 ± 1.3e-05 | 0.000175 ± 4e-06 | 0.000311 ± 6.3e-06 | 3120 ± 170 | 2.27e-05 ± 2.2e-06 | 6.91e-05 ± 1.6e-06 | –
C16U U30A G40A | 0.000118 ± 1.8e-05 | 8.29e-05 ± 2.2e-05 | – | 1030 ± 380 | – | 4.8e-05 ± 2e-05 | < 1e-05
A52C U55G | 5.71e-05 ± 5.1e-06 | – | – | – | – | – | < 1e-05
A20G C58U C70G | 7.18e-05 ± 2.9e-05 | 7.21e-05 ± 1.9e-05 | – | – | – | 0.000104 ± 2.6e-05 | –
A33C U46A | 3.08e-05 ± 7.5e-06 | 3.48e-05 ± 1.7e-05 | – | – | < 1e-05 | – | –
G29U A42G | 0.00693 ± 0.0016 | – | 0.00626 ± 0.0011 | 1770 ± 660 | 0.000486 ± 0.00015 | 0.00202 ± 0.00037 | 0.000272 ± 0.00011
C16G A53U | 0.00332 ± 0.00045 | 0.00182 ± 0.0004 | 0.00295 ± 0.00047 | 1910 ± 380 | 0.000238 ± 6e-05 | 0.000752 ± 0.00012 | 8.15e-05 ± 1.4e-05
G35U G59U G66U | < 1e-05 | – | – | – | – | < 1e-05 | –
C50U A53U | 5.88e-05 ± 7.9e-06 | – | 3.82e-05 ± 8.6e-06 | 5390 ± 2000 | – | – | < 1e-05
U47C A64U | 0.000108 ± 8.5e-06 | 9.46e-05 ± 2.2e-05 | 0.000102 ± 1.2e-05 | 363 ± 170 | – | 7.89e-05 ± 1.8e-05 | –
A12G U65A | 0.0002 ± 5.7e-06 | 7.94e-05 ± 8.3e-06 | 0.000143 ± 1.2e-05 | 3880 ± 230 | – | 2.72e-05 ± 6.7e-06 | –
C10U U30G | < 1e-05 | – | – | – | < 1e-05 | < 1e-05 | < 1e-05
A42U C68U | 0.000347 ± 1.8e-05 | 0.000254 ± 5.6e-05 | 0.000302 ± 3e-05 | 1360 ± 230 | – | 0.000108 ± 2.4e-05 | –
G32U U47A | 0.000688 ± 0.00026 | 0.000375 ± 0.00014 | 0.000493 ± 0.00011 | – | 5.78e-05 ± 1.8e-05 | 8.3e-05 ± 2e-05 | –
A33U G41U | 2.33e-05 ± 1.9e-06 | 2.26e-05 ± 8e-06 | 2.14e-05 ± 6.8e-06 | – | < 1e-05 | – | < 1e-05
A53C G59U | < 1e-05 | – | – | – | – | – | –
